Data reported in IntAct's records for PubMed 31515488.

B1: Signal transducing adapter molecule 1 (Homo sapiens), Q92783 (parent)
chain: MPLFATNPFDQDVEKATSEMNTAEDWGLILDICDKVGQSRTGPKDCLRSIMRRVNHKDPHVAMQALTLLGACVSNCGKIFHLEVCSRDFASEVSNVLNKGHPKVCEKLKALMVEWTDEFKNDPQLSLISAMIKNLKEQGVTFPAIGSQAAEQAKASPALVAKDPGTVANKKEEEDLAKAIELSLKEQRQQSTTLSTLYPSTSSLLTNHQHEGRKVRAIYDFEAAEDNELTFKAGEIITVLDDSDPNWWKGETHQGIGLFPSNFVTADLTAEPEMIKTEKKTVQFSDDVQVETIEPEPEPAFIDEDKMDQLLQMLQSTDPSDDQPDLPELLHLEAMCHQMGPLIDEKLEDIDRKHSELSELNVKVMEALSLYTKLMNEDPMYSMYAKLQNQPYYMQSSGVSGSQVYAGPPPSGAYLVAGNAQMSHLQSYSLPPEQLSSLSQAVVPPSANPALPSQQTQAAYPNTMVSSVQGNTYPSQAPVYSPPPAATAAAATADVTLYQNAGPNMPQVPNYNLTSSTLPQPGGSQQPPQPQQPYSQKALL
B2: Gem-associated protein 7 (Homo sapiens), Q9H840 (parent)
chain: MQTPVNIPVPVLRLPRGPDGFSRGFAPDGRRAPLRPEVPEIQECPIAQESLESQEQRARAALRERYLRSLLAMVGHQVSFTLHEGVRVAAHFGATDLDVANFYVSQLQTPIGVQAEALLRCSDIISYTFKP
B3: Methylthioribulose-1-phosphate dehydratase (Homo sapiens), Q96GX9 (parent)
chain: MSGCDAREGDCCSRRCGAQDKEHPRYLIPELCKQFYHLGWVTGTGGGISLKHGDEIYIAPSGVQKERIQPEDMFVCDINEKDISGPSPSKKLKKSQCTPLFMNAYTMRGAGAVIHTHSKAAVMATLLFPGREFKITHQEMIKGIKKCTSGGYYRYDDMLVVPIIENTPEEKDLKDRMAHAMNEYPDSCAVLVRRHGVYVWGETWEKAKTMCECYDYLFDIAVSMKKVGLDPSQLPVGENGIV
B4: Notch homolog 2 N-terminal-like protein A (Homo sapiens), Q7Z3S9 (parent)
chain: MCVTYHNGTGYCKCPEGFLGEYCQHRDPCEKNRCQNGGTCVAQAMLGKATCRCASGFTGEDCQYSTSHPCFVSRPCLNGGTCHMLSRDTYECTCQVGFTGKECQWTDACLSHPCANGSTCTTVANQFSCKCLTGFTGQKCETDVNECDIPGHCQHGGTCLNLPGSYQCQCLQGFTGQYCDSLYVPCAPSPCVNGGTCRQTGDFTFECNCLPETVRRGTELWERDREVWNGKEHDEN
partner: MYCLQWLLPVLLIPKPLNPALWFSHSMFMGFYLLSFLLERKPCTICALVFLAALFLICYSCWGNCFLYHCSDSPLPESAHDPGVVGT
B5: MAP kinase-activated protein kinase 3 (Homo sapiens), Q16644 (parent)
chain: MDGETAEEQGGPVPPPVAPGGPGLGGAPGGRREPKKYAVTDDYQLSKQVLGLGVNGKVLECFHRRTGQKCALKLLYDSPKARQEVDHHWQASGGPHIVCILDVYENMHHGKRCLLIIMECMEGGELFSRIQERGDQAFTEREAAEIMRDIGTAIQFLHSHNIAHRDVKPENLLYTSKEKDAVLKLTDFGFAKETTQNALQTPCYTPYYVAPEVLGPEKYDKSCDMWSLGVIMYILLCGFPPFYSNTGQAISPGMKRRIRLGQYGFPNPEWSEVSEDAKQLIRLLLKTDPTERLTITQFMNHPWINQSMVVPQTPLHTARVLQEDKDHWDEVKEEMTSALATMRVDYDQVKIKDLKTSNNRLLNKRRKKQAGSSSASQGCNNQ
B6: Ribosome quality control complex subunit TCF25 (Homo sapiens), Q9BQ70 (parent)
chain: MSRRALRRLRGEQRGQEPLGPGALHFDLRDDDDAEEEGPKRELGVRRPGGAGKEGVRVNNRFELINIDDLEDDPVVNGERSGCALTDAVAPGNKGRGQRGNTESKTDGDDTETVPSEQSHASGKLRKKKKKQKNKKSSTGEASENGLEDIDRILERIEDSTGLNRPGPAPLSSRKHVLYVEHRHLNPDTELKRYFGARAILGEQRPRQRQRVYPKCTWLTTPKSTWPRYSKPGLSMRLLESKKGLSFFAFEHSEEYQQAQHKFLVAVESMEPNNIVVLLQTSPYHVDSLLQLSDACRFQEDQEMARDLVERALYSMECAFHPLFSLTSGACRLDYRRPENRSFYLALYKQMSFLEKRGCPRTALEYCKLILSLEPDEDPLCMLLLIDHLALRARNYEYLIRLFQEWEAHRNLSQLPNFAFSVPLAYFLLSQQTDLPECEQSSARQKASLLIQQALTMFPGVLLPLLESCSVRPDASVSSHRFFGPNAEISQPPALSQLVNLYLGRSHFLWKEPATMSWLEENVHEVLQAVDAGDPAVEACENRRKVLYQRAPRNIHRHVILSEIKEAVAALPPDVTTQSVMGFDPLPPSDTIYSYVRPERLSPISHGNTIALFFRSLLPNYTMEGERPEEGVAGGLNRNQGLNRLMLAVRDMMANFHLNDLEAPHEDDAEGEGEWD
partner: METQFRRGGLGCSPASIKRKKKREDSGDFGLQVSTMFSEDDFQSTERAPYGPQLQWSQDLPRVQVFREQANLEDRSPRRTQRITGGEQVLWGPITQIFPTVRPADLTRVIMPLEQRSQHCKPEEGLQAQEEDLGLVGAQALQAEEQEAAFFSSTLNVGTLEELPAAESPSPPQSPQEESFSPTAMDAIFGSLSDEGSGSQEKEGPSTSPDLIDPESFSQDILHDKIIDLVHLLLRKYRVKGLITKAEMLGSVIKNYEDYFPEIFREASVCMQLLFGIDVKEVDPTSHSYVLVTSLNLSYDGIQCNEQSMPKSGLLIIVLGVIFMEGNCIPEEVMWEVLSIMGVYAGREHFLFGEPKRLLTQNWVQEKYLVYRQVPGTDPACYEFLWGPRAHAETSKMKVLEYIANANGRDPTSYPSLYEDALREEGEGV

Variants of: B1
Conditions: with hgs_human HGS

Variant	effect of a mutation on the interaction
A367T	with no effect
V61I	with no effect
I343T	with no effect
I350T	with no effect

Variants of: B2
Conditions: with gemi6_human GEMIN6, Q8WXD5
Chain of gemi6_human GEMIN6, Q8WXD5 (Q8WXD5 whole entry): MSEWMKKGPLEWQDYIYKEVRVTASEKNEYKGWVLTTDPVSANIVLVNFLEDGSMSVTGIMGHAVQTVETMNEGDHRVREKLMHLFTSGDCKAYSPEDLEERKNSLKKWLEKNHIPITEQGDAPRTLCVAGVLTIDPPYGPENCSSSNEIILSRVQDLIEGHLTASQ

Variant	effect of a mutation on the interaction
R68C	with no effect

Variants of: B3
Conditions: with ntaq1_human NTAQ1, Q96HA8

Variant	effect of a mutation on the interaction
G111A	with no effect
M181V	with no effect

Variants of: B4
Conditions: with blcap_human BLCAP

Variant	effect of a mutation on the interaction
R74Q	with no effect
A115T	with no effect

Variants of: B5
Conditions: with mk14_human MAPK14, Q16539
Chain of mk14_human MAPK14, Q16539 (Q16539 whole entry): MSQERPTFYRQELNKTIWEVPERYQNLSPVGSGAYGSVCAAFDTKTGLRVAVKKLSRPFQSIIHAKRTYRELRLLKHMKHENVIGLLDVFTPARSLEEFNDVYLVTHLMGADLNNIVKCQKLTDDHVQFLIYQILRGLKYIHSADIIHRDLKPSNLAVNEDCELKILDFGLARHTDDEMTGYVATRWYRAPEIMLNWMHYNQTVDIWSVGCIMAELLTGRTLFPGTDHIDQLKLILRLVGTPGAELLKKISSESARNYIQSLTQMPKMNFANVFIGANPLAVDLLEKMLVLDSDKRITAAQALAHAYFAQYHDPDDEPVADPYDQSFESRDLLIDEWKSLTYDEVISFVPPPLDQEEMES

Variant	effect of a mutation on the interaction
E105A	with no effect

Variants of: B6
Conditions: with magab_human MAGEA11, P43364

Variant	effect of a mutation on the interaction
V526A	with no effect
